Data set [1] relates to Enterokinase sensor, StrepII-GFP-(linker)-(protease site)-CGRP-Gly fusion with GGSG linker and DDDDK protease site, uncleaved.
Data set [2] has as its system TEV protease sensor, StrepII-GFP-(linker)-(protease site)-CGRP-Gly fusion with GGSG linker and ENLYFQG protease site, uncleaved.
Data set [3] deals with Caspase-3 sensor, StrepII-GFP-(linker)-(protease site)-CGRP-Gly fusion with GGSG linker and DEVD protease site, uncleaved.

As for enterokinase, the “proteolytic cleavage of the sensor, read by CGRP receptor activation” value (shortened to “proteolytic cleavage of the sensor, read”) in data set [1] was “after being cleaved by their respective protease”. Regarding Tobacco Etch Virus (TEV) protease, the “proteolytic cleavage of the sensor, read” value in data set [2] is recorded as “after being cleaved by their respective protease”.

With caspase-3, in data set [3], the “proteolytic cleavage of the sensor (MALDI spectrum)” value was “MALDI spectrum showing cleavage of caspase sensor” and the “proteolytic cleavage of the sensor, read” value is reported as “after being cleaved by their respective protease”.

The values above are taken from patent US20150018665.
